In the supplement of paper PMC10065799, “High-throughput profiling of sequence recognition by tyrosine kinases and SH2 domains using bacterial peptide display” (eLife, 2023):

What was measured:
c-Src SH2 = assay: SH2 binding enrichment of the phosphorylated peptide, bacterial display (enrichment ratio); higher = better substrate or ligand; peptides without Tyr show the background
Grb2 SH2 = Grb2 SH2 (UniProt P62993); assay: as above
SHP2-C SH2 = assay: as above
Fer (mouse) = assay: phosphorylation enrichment, bacterial display (enrichment ratio); higher = better substrate or ligand; peptides without Tyr show the background
Fyn = Fyn (UniProt P06241); assay: as above
Fyn, sequence (P06241 whole entry, looked up): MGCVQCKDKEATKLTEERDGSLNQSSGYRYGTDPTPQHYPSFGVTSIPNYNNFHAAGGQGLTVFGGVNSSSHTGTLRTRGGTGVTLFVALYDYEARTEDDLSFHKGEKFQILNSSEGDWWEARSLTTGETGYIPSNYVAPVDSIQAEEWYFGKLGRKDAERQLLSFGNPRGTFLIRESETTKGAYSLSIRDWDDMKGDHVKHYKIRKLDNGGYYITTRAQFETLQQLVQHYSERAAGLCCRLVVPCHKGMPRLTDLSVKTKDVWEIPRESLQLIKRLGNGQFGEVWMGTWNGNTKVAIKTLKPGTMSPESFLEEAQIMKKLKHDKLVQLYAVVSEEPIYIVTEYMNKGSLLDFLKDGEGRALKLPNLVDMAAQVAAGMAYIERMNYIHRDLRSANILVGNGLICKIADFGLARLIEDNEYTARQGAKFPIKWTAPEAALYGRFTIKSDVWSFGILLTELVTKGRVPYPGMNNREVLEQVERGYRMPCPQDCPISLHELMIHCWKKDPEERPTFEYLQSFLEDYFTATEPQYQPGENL

EPHB1 = EPHB1 (UniProt P54762); assay: as above
FGFR1 = FGFR1 (UniProt P11362); assay: as above
EPHB2 = EPHB2 (UniProt P29323); assay: as above
EPHB2, sequence (P29323 whole entry, looked up): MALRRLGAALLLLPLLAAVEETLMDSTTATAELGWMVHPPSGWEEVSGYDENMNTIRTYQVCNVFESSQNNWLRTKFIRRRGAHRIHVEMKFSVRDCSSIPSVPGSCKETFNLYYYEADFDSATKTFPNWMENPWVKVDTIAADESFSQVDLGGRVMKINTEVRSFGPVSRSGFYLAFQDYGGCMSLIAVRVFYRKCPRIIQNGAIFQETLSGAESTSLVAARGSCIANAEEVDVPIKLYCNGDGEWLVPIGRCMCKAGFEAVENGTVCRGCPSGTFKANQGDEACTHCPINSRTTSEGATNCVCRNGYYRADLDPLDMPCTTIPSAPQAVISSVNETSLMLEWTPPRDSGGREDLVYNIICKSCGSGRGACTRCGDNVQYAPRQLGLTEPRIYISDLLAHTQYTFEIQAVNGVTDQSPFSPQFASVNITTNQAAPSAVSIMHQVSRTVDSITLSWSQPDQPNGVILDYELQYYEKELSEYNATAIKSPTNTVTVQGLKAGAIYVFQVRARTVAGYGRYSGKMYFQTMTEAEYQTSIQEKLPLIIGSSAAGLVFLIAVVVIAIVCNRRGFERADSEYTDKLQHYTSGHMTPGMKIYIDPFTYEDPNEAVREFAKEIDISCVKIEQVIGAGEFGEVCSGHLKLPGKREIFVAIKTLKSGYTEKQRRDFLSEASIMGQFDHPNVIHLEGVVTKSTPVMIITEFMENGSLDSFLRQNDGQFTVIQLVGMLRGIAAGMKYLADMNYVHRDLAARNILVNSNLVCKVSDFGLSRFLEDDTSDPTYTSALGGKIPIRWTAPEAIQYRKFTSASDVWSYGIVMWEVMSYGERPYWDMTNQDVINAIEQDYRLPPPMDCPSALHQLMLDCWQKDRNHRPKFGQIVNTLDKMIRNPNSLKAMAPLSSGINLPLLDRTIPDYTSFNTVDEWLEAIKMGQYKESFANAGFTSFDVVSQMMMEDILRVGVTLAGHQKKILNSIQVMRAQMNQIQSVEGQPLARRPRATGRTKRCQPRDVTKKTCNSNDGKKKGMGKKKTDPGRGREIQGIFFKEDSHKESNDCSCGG

AncSZ = assay: as above
Hck = Hck (UniProt P08631); assay: as above
Hck, sequence (P08631 whole entry, looked up): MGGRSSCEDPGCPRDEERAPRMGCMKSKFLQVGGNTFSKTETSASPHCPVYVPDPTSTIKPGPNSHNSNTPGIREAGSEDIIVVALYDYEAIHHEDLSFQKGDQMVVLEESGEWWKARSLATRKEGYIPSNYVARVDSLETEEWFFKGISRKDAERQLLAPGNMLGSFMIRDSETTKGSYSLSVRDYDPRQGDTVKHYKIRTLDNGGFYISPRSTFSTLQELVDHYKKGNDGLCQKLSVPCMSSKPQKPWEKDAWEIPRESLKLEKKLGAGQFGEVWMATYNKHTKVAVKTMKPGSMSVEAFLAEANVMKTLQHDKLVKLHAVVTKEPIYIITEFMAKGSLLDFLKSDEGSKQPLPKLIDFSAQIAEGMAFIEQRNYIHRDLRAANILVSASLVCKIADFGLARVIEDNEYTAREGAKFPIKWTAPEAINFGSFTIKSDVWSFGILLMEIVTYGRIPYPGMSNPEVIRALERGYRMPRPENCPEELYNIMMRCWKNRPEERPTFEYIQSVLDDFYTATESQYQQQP

c-Src = assay: as above
c-Abl (mouse) = assay: as above
MERTK = MERTK (UniProt Q12866); assay: as above
MERTK, sequence (Q12866 whole entry, looked up): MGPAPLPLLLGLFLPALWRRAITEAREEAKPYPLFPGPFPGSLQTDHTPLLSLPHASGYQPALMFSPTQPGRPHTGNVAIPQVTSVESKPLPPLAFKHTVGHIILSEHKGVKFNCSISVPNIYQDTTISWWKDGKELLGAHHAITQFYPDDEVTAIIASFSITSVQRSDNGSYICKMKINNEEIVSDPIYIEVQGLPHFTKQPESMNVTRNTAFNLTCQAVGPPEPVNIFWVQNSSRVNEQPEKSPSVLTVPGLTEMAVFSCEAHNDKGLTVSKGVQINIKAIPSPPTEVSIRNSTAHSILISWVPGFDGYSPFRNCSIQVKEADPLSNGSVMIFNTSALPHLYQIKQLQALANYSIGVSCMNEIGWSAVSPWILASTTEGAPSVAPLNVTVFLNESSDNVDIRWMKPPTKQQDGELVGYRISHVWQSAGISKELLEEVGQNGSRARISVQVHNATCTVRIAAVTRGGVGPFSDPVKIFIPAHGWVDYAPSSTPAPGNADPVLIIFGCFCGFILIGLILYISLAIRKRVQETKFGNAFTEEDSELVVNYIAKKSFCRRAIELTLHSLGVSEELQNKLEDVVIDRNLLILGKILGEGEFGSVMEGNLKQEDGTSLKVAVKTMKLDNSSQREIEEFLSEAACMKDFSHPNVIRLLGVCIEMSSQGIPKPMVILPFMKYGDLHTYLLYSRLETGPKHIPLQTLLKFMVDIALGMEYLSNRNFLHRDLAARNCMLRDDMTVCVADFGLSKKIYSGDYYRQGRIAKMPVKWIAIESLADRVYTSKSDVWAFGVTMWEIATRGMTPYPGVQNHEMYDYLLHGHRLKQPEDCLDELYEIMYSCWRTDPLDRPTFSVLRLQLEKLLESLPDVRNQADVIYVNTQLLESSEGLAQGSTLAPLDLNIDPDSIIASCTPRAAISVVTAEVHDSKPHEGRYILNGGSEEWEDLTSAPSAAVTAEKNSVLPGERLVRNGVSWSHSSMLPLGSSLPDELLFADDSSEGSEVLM

Jak2 = Jak2 (UniProt O60674); assay: as above
Jak2, sequence (O60674 whole entry, looked up): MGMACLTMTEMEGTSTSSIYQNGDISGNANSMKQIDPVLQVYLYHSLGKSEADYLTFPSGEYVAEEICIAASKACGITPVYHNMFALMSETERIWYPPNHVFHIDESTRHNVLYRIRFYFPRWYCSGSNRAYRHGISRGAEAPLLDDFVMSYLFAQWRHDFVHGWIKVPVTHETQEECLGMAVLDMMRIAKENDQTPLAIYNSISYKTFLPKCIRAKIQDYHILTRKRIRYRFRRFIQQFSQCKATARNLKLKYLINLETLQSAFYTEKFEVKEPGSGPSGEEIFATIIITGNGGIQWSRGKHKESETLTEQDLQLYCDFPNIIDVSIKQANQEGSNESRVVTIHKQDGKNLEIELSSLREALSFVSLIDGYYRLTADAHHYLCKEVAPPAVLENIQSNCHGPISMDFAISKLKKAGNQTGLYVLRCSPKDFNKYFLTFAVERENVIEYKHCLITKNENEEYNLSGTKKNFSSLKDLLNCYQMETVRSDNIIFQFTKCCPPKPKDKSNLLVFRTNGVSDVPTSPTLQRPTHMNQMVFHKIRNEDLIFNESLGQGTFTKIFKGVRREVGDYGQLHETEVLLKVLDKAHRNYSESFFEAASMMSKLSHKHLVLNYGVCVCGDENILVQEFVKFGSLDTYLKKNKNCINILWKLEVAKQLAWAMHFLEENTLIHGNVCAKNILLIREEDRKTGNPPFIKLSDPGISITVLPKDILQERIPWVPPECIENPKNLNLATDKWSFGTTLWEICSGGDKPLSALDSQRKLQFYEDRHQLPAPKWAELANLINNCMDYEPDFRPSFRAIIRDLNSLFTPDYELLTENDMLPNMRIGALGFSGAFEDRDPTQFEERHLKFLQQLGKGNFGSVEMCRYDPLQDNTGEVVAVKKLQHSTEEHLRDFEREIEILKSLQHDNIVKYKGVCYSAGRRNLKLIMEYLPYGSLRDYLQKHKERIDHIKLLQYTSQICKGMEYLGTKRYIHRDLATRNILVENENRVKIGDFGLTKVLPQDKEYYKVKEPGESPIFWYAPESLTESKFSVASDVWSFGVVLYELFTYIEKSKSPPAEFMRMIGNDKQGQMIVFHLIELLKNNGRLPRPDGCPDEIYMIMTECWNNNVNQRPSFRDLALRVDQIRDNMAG

Fes = Fes (UniProt P07332); assay: as above
Fes, sequence (P07332 whole entry, looked up): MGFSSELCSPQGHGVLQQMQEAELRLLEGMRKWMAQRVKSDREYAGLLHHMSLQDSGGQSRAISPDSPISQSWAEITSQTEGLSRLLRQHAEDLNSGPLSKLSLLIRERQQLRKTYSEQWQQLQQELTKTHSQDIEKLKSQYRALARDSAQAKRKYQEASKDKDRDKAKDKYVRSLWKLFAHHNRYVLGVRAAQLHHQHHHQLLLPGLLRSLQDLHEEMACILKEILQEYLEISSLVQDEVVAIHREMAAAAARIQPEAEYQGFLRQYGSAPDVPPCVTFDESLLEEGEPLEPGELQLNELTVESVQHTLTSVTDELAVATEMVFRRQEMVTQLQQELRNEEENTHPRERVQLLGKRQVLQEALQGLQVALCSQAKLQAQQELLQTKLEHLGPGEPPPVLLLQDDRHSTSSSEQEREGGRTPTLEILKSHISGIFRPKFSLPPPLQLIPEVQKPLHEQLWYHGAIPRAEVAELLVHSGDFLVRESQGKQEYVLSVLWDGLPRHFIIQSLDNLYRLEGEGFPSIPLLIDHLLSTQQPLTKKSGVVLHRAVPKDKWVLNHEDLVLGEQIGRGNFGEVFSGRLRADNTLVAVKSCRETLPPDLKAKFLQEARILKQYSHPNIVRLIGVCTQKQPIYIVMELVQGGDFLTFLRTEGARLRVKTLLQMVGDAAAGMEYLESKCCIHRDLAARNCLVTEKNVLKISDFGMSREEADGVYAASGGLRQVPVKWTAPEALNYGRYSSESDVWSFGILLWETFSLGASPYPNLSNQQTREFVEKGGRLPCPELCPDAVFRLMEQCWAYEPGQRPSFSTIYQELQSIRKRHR

FGFR3 = FGFR3 (UniProt P22607); assay: as above
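Throughout, for SH2 binding enrichment of the phosphorylated peptide, bacterial display: peptide library displayed on the E. coli surface as eCPX fusions, selected cells deep-sequenced, score is each peptide's frequency after selection divided by its frequency in the input.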
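Throughout, for phosphorylation enrichment, bacterial display: 11-residue human phosphosite peptides and single-mutation variants displayed on the E. coli surface, counted by deep sequencing, each peptide's frequency after selection divided by its frequency in the unselected input library; frequency after pTyr selection over input frequency; kinase dosed for 20-30% of maximal phosphorylation in three min.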

| Sequence | SH2 binding enrichment (c-Src SH2) | SH2 binding enrichment (Grb2 SH2) | SH2 binding enrichment (SHP2-C SH2) | phosphorylation enrichment (Fer (mouse)) | phosphorylation enrichment (Fyn) | phosphorylation enrichment (EPHB1) | phosphorylation enrichment (FGFR1) | phosphorylation enrichment (EPHB2) | phosphorylation enrichment (AncSZ) | phosphorylation enrichment (Hck) | phosphorylation enrichment (c-Src) | phosphorylation enrichment (c-Abl (mouse)) | phosphorylation enrichment (MERTK) | phosphorylation enrichment (Jak2) | phosphorylation enrichment (Fes) | phosphorylation enrichment (FGFR3) |
| --- | --- | --- | --- | --- | --- | --- | --- | --- | --- | --- | --- | --- | --- | --- | --- | --- |
| LVTAWYIGFLC [KCNQ2_Y237] | 0.622 | 1.16 | 0.712 | 0.873 | 0.748 | 1.12 | 0.872 | 0.95 | 2.1 | 1.11 | 1.15 | 2.12 | 0.629 | 2.67 | 2.62 | 1.3 |
| LYEDRYLLGTS [ASS1_Y87] | 0.546 | 0.82 | 1.05 | 4.27 | 1.79 | 3.01 | 0.702 | 1.23 | 0.982 | 3.73 | 0.837 | 0.79 | 0.786 | 0.894 | 0.981 | 0.95 |
| MAQDIYRASYY [ALK_Y1278_R1275Q] | 0.755 | 0.882 | 0.73 | 0.451 | 1.62 | 0.576 | 0.786 | 0.53 | 0.662 | 2.54 | 3.15 | 7.45 | 0.791 | 0.61 | 0.765 | 0.653 |
| MASISYDYCRV [BST2_Y6_T4I] | 1.22 | 1.1 | 0.77 | 2.33 | 0.565 | 4.17 | 1.32 | 3.29 | 1.58 | 1.02 | 0.589 | 0.708 | 0.75 | 1.09 | 0.908 | 1.1 |
| MEFLPYGSLRD [JAK2_Y934_YF] | 0.573 | 0.798 | 0.574 | 0.832 | 1.64 | 0.571 | 0.441 | 0.451 | 0.857 | 2.29 | 2.6 | 0.692 | 0.388 | 0.798 | 1.56 | 0.615 |
| MEKEKYVSFIS [JMJD1C_Y596_YF] | 0.785 | 0.711 | 0.831 | 0.35 | 0.348 | 0.416 | 0.434 | 0.417 | 0.833 | 0.497 | 0.486 | 0.541 | 0.454 | 0.518 | 0.832 | 0.55 |
| MEKEKYVSYIS [JMJD1C_Y596] | 0.432 | 0.612 | 0.815 | 0.397 | 0.471 | 0.571 | 0.401 | 0.509 | 0.795 | 0.442 | 0.5 | 0.629 | 0.413 | 0.921 | 1.11 | 0.672 |
| MGRVNYGAFIN [GLB1_Y485_YF] | 0.585 | 0.903 | 0.969 | 0.382 | 0.408 | 0.399 | 0.398 | 0.498 | 0.567 | 0.422 | 0.562 | 0.472 | 0.426 | 0.616 | 0.707 | 0.496 |
| MHLRQYKLLGG [GNAS_Y391_E392K] | 0.483 | 0.715 | 0.453 | 0.399 | 0.443 | 0.534 | 0.478 | 0.44 | 0.51 | 0.522 | 0.419 | 0.478 | 0.412 | 0.548 | 0.764 | 0.535 |
| MKDLTYASLCF [ALOX5_Y446] | 0.411 | 0.912 | 0.737 | 1.71 | 6.75 | 2.65 | 0.901 | 2.07 | 1.09 | 5.35 | 5.59 | 1.78 | 3.15 | 1.01 | 1.33 | 0.946 |
| MMVGAYSTLEG [ECPAS_Y470] | 11.7 | 0.777 | 1.44 | 0.743 | 0.607 | 0.735 | 0.538 | 0.545 | 0.765 | 1.07 | 0.704 | 0.57 | 3.09 | 0.557 | 0.839 | 0.676 |
| MSLPGYKLVTG [GJA1_Y286_P283L] | 0.489 | 0.766 | 0.682 | 0.518 | 0.378 | 0.374 | 0.495 | 0.393 | 0.536 | 0.345 | 0.353 | 0.348 | 0.364 | 0.497 | 0.585 | 0.456 |
| MSSAGYRAAEG [COL6A3_Y543_T538M] | 0.396 | 0.788 | 0.609 | 0.379 | 0.387 | 0.389 | 0.425 | 0.334 | 0.468 | 0.375 | 0.404 | 0.497 | 0.372 | 0.529 | 0.495 | 0.444 |
| MSSLYYANALF [HOXB7_Y6_T9A] | 2.08 | 4.61 | 1.36 | 5.14 | 4.93 | 7.33 | 5.32 | 8.29 | 1.04 | 6.04 | 4.88 | 3.44 | 10.7 | 2.94 | 1.04 | 4.83 |
| NDFGNYNQQPS [HNRNPA2B1_Y306] | 0.382 | 0.915 | 0.66 | 0.472 | 0.596 | 0.691 | 0.589 | 0.604 | 0.764 | 0.504 | 0.505 | 0.74 | 0.478 | 0.788 | 0.85 | 0.493 |
| NEKNIYRVPLM [BMPR2_Y247] | 0.508 | 0.864 | 0.755 | 0.439 | 1.96 | 0.377 | 0.446 | 0.357 | 0.622 | 1.16 | 0.877 | 31.2 | 0.609 | 0.671 | 0.708 | 0.501 |
| NKHTTYTMEHI [ACTN1_Y708_N707T] | 0.565 | 0.865 | 0.787 | 0.397 | 0.419 | 0.394 | 0.395 | 0.4 | 0.527 | 0.451 | 0.45 | 0.514 | 0.434 | 0.447 | 0.575 | 0.445 |

The next lines start with results.

| SH2 binding enrichment (c-Src SH2) | SH2 binding enrichment (Grb2 SH2) | SH2 binding enrichment (SHP2-C SH2) | Sequence | phosphorylation enrichment (Fer (mouse)) | phosphorylation enrichment (Fyn) | phosphorylation enrichment (EPHB1) | phosphorylation enrichment (FGFR1) | phosphorylation enrichment (EPHB2) | phosphorylation enrichment (AncSZ) | phosphorylation enrichment (Hck) | phosphorylation enrichment (c-Src) | phosphorylation enrichment (c-Abl (mouse)) | phosphorylation enrichment (MERTK) | phosphorylation enrichment (Jak2) | phosphorylation enrichment (Fes) | phosphorylation enrichment (FGFR3) |
| --- | --- | --- | --- | --- | --- | --- | --- | --- | --- | --- | --- | --- | --- | --- | --- | --- |
| 2.44 | 2.63 | 1.31 | LYRYGYANTSE [SI_Y1233_C1229Y] | 0.32 | 0.383 | 0.437 | 0.46 | 0.39 | 0.806 | 0.395 | 0.351 | 0.511 | 0.36 | 0.6 | 0.775 | 0.507 |
| 0.66 | 1.01 | 0.825 | MANFVYKAGPS [MAML2_Y515_M514V_YF] | 0.39 | 0.423 | 0.436 | 0.517 | 0.553 | 0.681 | 0.499 | 0.365 | 0.417 | 0.371 | 0.477 | 0.65 | 0.469 |
| 0.613 | 0.767 | 0.616 | MDDPRYGVCPL [ZNF100_Y6_M8V] | 0.56 | 0.609 | 0.673 | 0.491 | 0.632 | 1.15 | 0.715 | 0.527 | 0.918 | 0.579 | 1.46 | 1.27 | 0.75 |
| 0.471 | 0.869 | 0.572 | MEIHAYRKLLE [LMNA_Y376] | 0.527 | 0.429 | 0.479 | 0.443 | 0.67 | 0.804 | 0.414 | 0.397 | 0.672 | 0.383 | 0.814 | 0.97 | 0.57 |
| 0.595 | 0.792 | 0.913 | MKALGYFAVVK [OPA1_Y498_T503K] | 0.596 | 0.464 | 0.507 | 0.51 | 0.569 | 1.05 | 0.48 | 0.397 | 0.767 | 0.439 | 1 | 1.25 | 0.692 |
| 0.454 | 0.838 | 0.753 | MSNSAYVKREV [SCN1A_Y1694_F1692S] | 0.37 | 0.402 | 0.407 | 0.45 | 0.415 | 0.563 | 0.399 | 0.335 | 0.442 | 0.381 | 0.437 | 0.562 | 0.46 |
| 0.567 | 0.909 | 1.22 | MTFMFYRENLR [NLRP14_Y443_V441M_YF] | 0.705 | 0.537 | 0.691 | 0.545 | 0.724 | 1.45 | 0.518 | 0.445 | 0.879 | 0.526 | 1.32 | 1.28 | 0.784 |
| 0.46 | 0.653 | 0.756 | MVSLFYGTAIF [OR10C1_Y251_L255I] | 0.937 | 1.1 | 0.619 | 0.477 | 0.666 | 1.41 | 0.995 | 1.92 | 1.22 | 0.63 | 1.4 | 1.53 | 0.819 |
| 0.494 | 1.1 | 0.645 | NDENIYKGLPD [VAV3_Y141_D139N] | 0.579 | 1.23 | 0.564 | 0.529 | 0.644 | 1.34 | 1.4 | 1.78 | 1.08 | 0.542 | 1.14 | 1.2 | 0.799 |
| 0.641 | 1.02 | 0.827 | NFFDLYGGEKF [PTPN11_Y66_D61N_YF] | 0.553 | 1.79 | 0.518 | 0.419 | 0.634 | 0.91 | 3.54 | 2.73 | 0.581 | 0.437 | 0.826 | 1.02 | 0.61 |
| 0.784 | 0.983 | 0.456 | NIKKEYTKMVQ [PMS2_Y181_A182T] | 0.27 | 0.378 | 0.394 | 0.808 | 0.333 | 0.494 | 0.385 | 0.426 | 0.502 | 0.452 | 0.49 | 0.492 | 0.439 |
| 0.5 | 0.827 | 0.664 | NKEAICSGFIR [SMCHD1_Y283_Y283C_YF] | 0.467 | 0.39 | 0.448 | 0.496 | 0.398 | 0.693 | 0.501 | 0.451 | 0.741 | 0.455 | 0.802 | 0.952 | 0.53 |
